Test results: patent US6187552A, “Method for identifying inhibitors of JAK2/cytokine receptor binding” (Pharmacia & Upjohn Company, priority 1998, dated 2001)

Molecular target: JAK2 (Homo sapiens, UniProt O60674)
Assay: SPA competition: soluble peptide/streptavidin against peptide 4-coated SPA beads for binding 3H-JAK2
Design: Y918N clone error corrected to Tyr
From the text: FIGS. 20 A and B illustrate a test of the ability of streptavidin-peptide 4 complexes to compete for binding of 3H-JAK2 to peptide 4-coated SPA beads. For A, #0 is a beads only control. In all reactions with peptide bound to beads, excess peptide 4 [SEQ ID NO:14] was bound to beads before adding soluble samples. The reaction in #1 is peptide 4 [SEQ ID NO:14] bound to beads only, no added peptide 4 [SEQ ID NO:14] or streptavidin. #2 contained soluble peptide 4/streptavidin at a ratio of 1:1. #3 contained soluble peptide 4/streptavidin at a ratio of 4:1. #4 contained 20 μM peptide 4 added as soluble peptide 4. #5 contained 20 μM streptavidin. […] For B, 0 is a beads only control. In all reactions with peptide bound to beads, excess peptide 4 was bound to beads in the presence of 1 mg/ml κ-casein (as described in Materials and Methods of Example 8) before adding soluble samples. The reaction in #1 is peptide 4 bound to beads only, no added peptide 4 or streptavidin. #2 contained peptide 1/streptavidin at a ratio of 4:1 and #3 contained peptide 4/streptavidin at a ratio of 4:1.
The assay was set up in 96-well plates (Wallac, catalog # 1450-401), Turku, Finland, using a total assay volume of 200, μl/well. Triplicate reactions were done for each data point. The buffer used in all the assays was 35 mM sodium phosphate, 150 mM NaCl, pH 8.0, 10% glycerol. Biotinylated peptides were allowed to bind to streptavidin-coated SPA beads (Amersham Life Sciences, Arlington Heights, Ill., catalog # RPNQ0006) with either less than saturating peptide or excess peptide. For 400 μg SPA beads used per reaction, there was the capacity to bind 49 pmole of biotin (given the binding capacity of 121 pmole biotin/mg bead). Under less than saturating conditions, beads and 40 pmole peptide were added to the assay plate well and incubated for one hour with gentle shaking on a Titer plate shaker (Lab-Line Instruments, Inc., Melrose Park, Ill.) at 600 rpm and not washed. Under conditions of excess peptide, beads and peptide (80 pmole of peptide per 400 μg of bead) were mixed in batch with or without 1 mg/ml K-casein added as described in Results and Discussion, incubated for one hour with rotation, washed three times with buffer and aliquotted into wells. ^3 H-JAK2 or ^3 H-NJAK2 and any other components to be tested were added and the reactions were mixed and incubated for one hour in the dark at room temperature. The plates were then read on a MicroBeta (Wallac) set to read scintillation due to tritium.
The ability of excess peptide 4 [SEQ ID NO: 14] to compete for binding of JAK2 was tested. Biotinylated peptide 4 was bound to streptavidin in solution to mimic the conditions of the peptide 4 bound to the beads. It was used at a ratio of 1:1 (peptide 4: streptavidin) and at a ratio of 4:1 to see whether having multiple peptides on one streptavidin molecule might do a better job of binding JAK2 and therefore of competing. […] This could be due to the free streptavidin pulling some of the peptide 4 [SEQ ID NO: 14] off the bead. […] Another SPA was done using peptide 4 [SEQ ID NO:14] or peptide 1 [SEQ ID NO:11] bound to streptavidin at a ratio of 4:1. […] The results are shown in panel B of FIG. 20.

Sequence of JAK2 (O60674 3-1132): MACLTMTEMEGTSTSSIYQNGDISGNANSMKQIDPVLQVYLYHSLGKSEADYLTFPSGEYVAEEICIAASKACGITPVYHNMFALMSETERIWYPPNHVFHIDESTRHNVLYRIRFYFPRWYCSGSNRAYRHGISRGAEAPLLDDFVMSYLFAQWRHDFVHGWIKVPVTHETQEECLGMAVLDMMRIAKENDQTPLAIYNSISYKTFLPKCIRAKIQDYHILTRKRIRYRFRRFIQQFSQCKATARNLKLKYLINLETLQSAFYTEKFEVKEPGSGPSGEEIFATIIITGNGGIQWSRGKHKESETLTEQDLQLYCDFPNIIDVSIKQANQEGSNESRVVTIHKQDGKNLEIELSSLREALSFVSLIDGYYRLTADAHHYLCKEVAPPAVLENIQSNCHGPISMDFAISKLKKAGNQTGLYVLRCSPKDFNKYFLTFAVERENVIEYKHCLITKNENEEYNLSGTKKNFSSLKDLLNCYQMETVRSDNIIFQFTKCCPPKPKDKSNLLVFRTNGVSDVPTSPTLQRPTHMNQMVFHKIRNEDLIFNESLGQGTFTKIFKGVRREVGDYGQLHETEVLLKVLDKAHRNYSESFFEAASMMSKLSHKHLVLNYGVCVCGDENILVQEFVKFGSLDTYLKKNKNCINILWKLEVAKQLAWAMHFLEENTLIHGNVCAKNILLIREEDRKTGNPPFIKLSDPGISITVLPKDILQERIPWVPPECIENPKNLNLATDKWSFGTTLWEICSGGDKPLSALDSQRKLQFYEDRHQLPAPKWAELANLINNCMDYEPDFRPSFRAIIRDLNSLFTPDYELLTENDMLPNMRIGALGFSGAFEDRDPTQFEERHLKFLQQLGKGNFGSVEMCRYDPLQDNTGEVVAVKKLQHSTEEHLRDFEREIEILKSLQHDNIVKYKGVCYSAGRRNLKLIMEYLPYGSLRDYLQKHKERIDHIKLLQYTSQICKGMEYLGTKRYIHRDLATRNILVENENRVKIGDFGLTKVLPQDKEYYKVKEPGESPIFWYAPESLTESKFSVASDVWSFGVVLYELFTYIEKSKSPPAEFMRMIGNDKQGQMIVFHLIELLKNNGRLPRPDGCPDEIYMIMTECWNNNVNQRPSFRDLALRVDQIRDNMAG

binding of JAK2 by peptide in solution (conclusion from FIG. 20): binds JAK2 very poorly | competition by peptide in solution, bound to streptavidin or not (conclusion from FIG. 20A): competes poorly
Sequence: GIYGYRLRRKWEEKIPNPSKSHLFQNGSAELWP [peptide 4, βc peptide, N-terminal truncation]
competition for binding of JAK2 (peptide/streptavidin 4:1, beads with 1 mg/ml κ-casein, FIG. 20B): does compete for binding JAK2 but very weakly | competition for binding of JAK2 (soluble peptide 4/streptavidin 1:1 and 4:1, no κ-casein, FIG. 20A): only minimal, if any, competition was seen
